Measured values from PMC10868440, “Structural characterization of the Sel1‐like repeat protein LceB from Legionella pneumophila” (Protein Science : A Publication of the Protein Society, 2024).
Where “and” joins values, the source holds several entries; their conditions need not be identical. Identical values can stand only once.

Tests used:
[1] = biological target: full-length 6His-LceB (Legionella pneumophila Philadelphia-1) (UniProt Q5ZVT4); assay: mass photometry
[2] = biological target: the molecule itself; assay: mass photometry

Row | Molecule | stoichiometry N [1] | stoichiometry N [2]
1 | full-length 6His-LceB (from UniProt Q5ZVT4 1-376) (natural protein) | 3 and 5 | –
2 | 6His-LceB (22-366) (domain or fragment, also called Lpg1356; truncated LceB crystallization construct; not shown: His6, N-terminal, kept) VGFAAFENGDYTTAYPHLMQAAKEGNEEAMYLLGRMYQYGYGVTTNYEEARNWYQKAADKNNALAQLSLGFMYDTGKGVSQDFTEAFKWYMKAAEQGNPIAQRNIGLMYATGDGVAASDDKAFNWFKKAAEQGYSKAQVNLGYQYMMGKGTPKDVKKAFEWYQKAAEQGDEKGEYSLGLLYTGQEGGIGADDKAAFYWFSQAANHGHVNAQTYLAYYYLKGYGVDADPVKAAYWYQSAAEKGQPEAQAQLGQLLLTGTGVDKDYQQAAYWFGKSAHQGNPIGQAKLGYMYLAGLGVNKSLVKAYAWLKIAAENKNEEAAKQLKSLEAKLTEPEKLEAEKMIKDLG | – | 2
3 | LceB no HT (22-366) (domain or fragment, also called LceB no His-tag; digested LceB) VGFAAFENGDYTTAYPHLMQAAKEGNEEAMYLLGRMYQYGYGVTTNYEEARNWYQKAADKNNALAQLSLGFMYDTGKGVSQDFTEAFKWYMKAAEQGNPIAQRNIGLMYATGDGVAASDDKAFNWFKKAAEQGYSKAQVNLGYQYMMGKGTPKDVKKAFEWYQKAAEQGDEKGEYSLGLLYTGQEGGIGADDKAAFYWFSQAANHGHVNAQTYLAYYYLKGYGVDADPVKAAYWYQSAAEKGQPEAQAQLGQLLLTGTGVDKDYQQAAYWFGKSAHQGNPIGQAKLGYMYLAGLGVNKSLVKAYAWLKIAAENKNEEAAKQLKSLEAKLTEPEKLEAEKMIKDLG | – | 2
